In series [1] the test system is T1, 5,6-carboxyfluorescein labeled Tub-tag peptide (CF-Tub-tag, peptide 13).
T1 sequence: VDSVEGEGEEEGEE

The target in series [2] is GBP4-Tub-tag (GFP-specific nanobody GBP4 with the Tub-tag sequence fused to its C-terminus). As to the kind of experiment: cell-based or functional assay.
GBP4-Tub-tag (GFP-specific nanobody GBP4 with the Tub-tag sequence fused to its C-terminus), sequence (heavy, as listed by the source): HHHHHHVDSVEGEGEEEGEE

Turning to “tubulin tyrosine ligase (TTL, Canis lupus)”, in series [1], the “conjugate yield after 120 min at 37 C, 3-N3-L-tyrosine (3), TTL:peptide 1:200, isocratic HPLC” value was “After 120 min of incubation at 37 °C the conjugate yield with 1 and 3 was 63% and 80%, respectively”; the “conjugate yield after 120 min at 37 C, 3-formyl-L-tyrosine (1), TTL:peptide 1:200, isocratic HPLC” value was “After 120 min of incubation at 37 °C the conjugate yield with 1 and 3 was 63% and 80%, respectively”.
In series [2], “tubulin tyrosine ligase (TTL, Canis lupus) (enzyme)” had a C-terminally modified GBP4 (3-N3-L-tyrosine incorporation followed by SPAAC to DBCO-biotin), 1:10 TTL/GBP4, 37 C, one hour of 71%; a conversion of GBP4 (3-N3-L-tyrosine incorporation followed by SPAAC to DBCO-biotin), 1:5 TTL/GBP4, 37 C, one hour of 82%; a conversion of GBP4, 1:5 TTL/GBP4, three hours of 99%; a conversion of GBP4, 1:10 TTL/GBP4, three hours of 88%.

These data come from patent US20170349625A1.
